The values below are quoted from earlier work in PMC8469970.

For orientation: Kd means the free concentration of one partner at which half of the binding sites on the other are occupied at equilibrium, for simple one-to-one binding.

The series addresses Galectin-1 (Homo sapiens) (UniProt P09382).

Consider Galectin-1 (from UniProt P09382), for which the dissociation constant (Kd) was 7 µM.
